The values that follow come from patent US20190029960A1, “Therapeutic Nanoparticles Having EGFR Ligands and Methods of Making and Using Same” (Pfizer Inc., priority 2016, published 2019).

Where a SMILES comes first, the peptide text is derived from it. Bridges are numbered along the chain shown (N, C = ends). [ ]: non-standard residue; d: D form. The star is where a group is joined. Orn = NCCC[C@H](N)C(=O)O; Pra = C#CC[C@H](N)C(=O)O; Dap = NC[C@H](N)C(=O)O; Acm = CC(=O)NC*

In one assay the target is T1, Fc tagged recombinant human EGFR (rhEGFR-Fc) (Homo sapiens, UniProt P00533).
T1 construct: purchased R&D Systems 344-ER-050
It is filed as binding. The settings on record: Table 6, TGF fragments. As to the method:
Surface plasmon resonance (SPR) binding studies were carried out on a Biacore T200 instrument (GE Healthcare). Approximately 10,000 RU of anti-Fc antibody (GE Healthcare, Cat #BR100839) was immobilized via amine coupling on each of flow cells 1 and 2 of a CM5 dextran-coated gold sensor chip (GE Healthcare, Cat #BR100530). […] The contact time and resulting amount of rhEGFR-Fc capture was varied based on the nature of the analyte, namely whether it was a peptide or nanoparticle.
Peptide binding assays were carried out in 10 mM PBS buffer supplemented with 0.05% surfactant P20 and 5% DMSO by volume, at 25° C. Peptides were injected over the rhEGFR-Fc surface for 60 s, followed by dissociation (buffer injection) for 60 s and regeneration with a 10 s pulse of 3M MgCl2. A fresh rhEGFR-Fc surface was generated for each concentration of each peptide tested. Peptide binding data was analyzed by fitting to a 1:1 Langmuir kinetic model to obtain the on-rate (ka), off-rate (kd) and/or equilibrium binding constant (KD) of the interaction.
As to `C#CC[C@H](NC(=O)CN)C(=O)NCC(=O)NCC(=O)N[C@@H](CO)C(=O)NCC(=O)N[C@@H](Cc1ccc(O)cc1)C(=O)N[C@H](C(=O)NCC(=O)N[C@@H](C)C(=O)N[C@@H](CCCNC(=N)N)C(=O)N[C@@H](CS)C(=O)N[C@@H](CCC(=O)O)C(=O)N[C@@H](Cc1c[nH]cn1)C(N)=O)C(C)C` [TGFf-6] (H-G[Pra]GGSGYVGARCEH-NH2), the KD entry is on record as “No binding”.
Turning to `C#CC[C@H](NC(=O)CN)C(=O)NCC(=O)NCC(=O)N[C@@H](C)C(=O)N[C@@H](CSCNC(C)=O)C(=O)N[C@H](C(=O)N[C@@H](CS)C(=O)N[C@@H](Cc1c[nH]cn1)C(=O)N[C@@H](CO)C(=O)NCC(=O)N[C@@H](Cc1ccc(O)cc1)C(=O)N[C@H](C(=O)NCC(N)=O)C(C)C)C(C)C` [TGFf-7] (H-G[Pra]GGAC(Acm)VCHSGYVG-NH2), the KD result is recorded as “No binding”.
Same read-out and setting: the result for `C#CC[C@H](NC(=O)CN)C(=O)NCC(=O)NCC(=O)N[C@@H](CCC(N)=O)C(=O)N[C@@H](CCC(=O)O)C(=O)N[C@@H](CC(=O)O)C(=O)N[C@@H](CCCCN)C(=O)N1CCC[C@H]1C(=O)N[C@@H](C)C(=O)N[C@@H](CSCNC(C)=O)C(=O)N[C@H](C(=O)N[C@@H](CS)C(=O)N[C@@H](Cc1c[nH]cn1)C(N)=O)C(C)C` [TGFf-8, H2N-G-Par-GG-QEDKPAC(Acm)VCH-CONH2] (H-G[Pra]GGQEDKPAC(Acm)VCH-NH2) reads “No binding”.
For the compound `C#CC[C@H](NC(=O)CN)C(=O)NCC(=O)NCC(=O)N[C@@H](CS)C(=O)N[C@@H](CCCNC(=N)N)C(=O)N[C@@H](Cc1ccccc1)C(=O)N[C@@H](CC(C)C)C(=O)N[C@H](C(=O)N[C@@H](CCC(N)=O)C(=O)N[C@@H](CCC(=O)O)C(=O)N[C@@H](CC(=O)O)C(=O)N[C@@H](CCCCN)C(=O)N1CCC[C@H]1C(N)=O)C(C)C` [TGFf-9] (H-G[Pra]GGCRFLVQEDKP-NH2), the KD result is given as “No binding”.
Still for that read-out and setting: the result for `C#CC[C@H](NC(=O)CN)C(=O)NCC(=O)NCC(=O)N[C@@H](CSCNC(C)=O)C(=O)N[C@@H](Cc1ccccc1)C(=O)N[C@@H](Cc1c[nH]cn1)C(=O)NCC(=O)N[C@H](C(=O)N[C@@H](CS)C(=O)N[C@@H](CCCNC(=N)N)C(=O)N[C@@H](Cc1ccccc1)C(=O)N[C@H](C(N)=O)C(C)C)[C@@H](C)O` [TGFf-10] (H-G[Pra]GGC(Acm)FHGTCRFV-NH2) reads “No binding”; that for `C#CC[C@H](NC(=O)CN)C(=O)NCC(=O)NCC(=O)N[C@@H](CO)C(=O)N[C@@H](Cc1c[nH]cn1)C(=O)N[C@H](C(=O)N[C@@H](CCC(N)=O)C(=O)N[C@@H](Cc1ccccc1)C(=O)N[C@@H](CS)C(=O)N[C@@H](Cc1ccccc1)C(=O)N[C@@H](Cc1c[nH]cn1)C(=O)NCC(=O)N[C@H](C(N)=O)[C@@H](C)O)[C@@H](C)O` [TGFf-11] (H-G[Pra]GGSHTQFCFHGT-NH2), “No binding”; that for `C#CC[C@H](NC(=O)CN)C(=O)NCC(=O)NCC(=O)N[C@@H](CC(N)=O)C(=O)N[C@@H](CC(=O)O)C(=O)N[C@@H](CS)C(=O)N1CCC[C@H]1C(=O)N[C@@H](CC(=O)O)C(=O)N[C@@H](CO)C(=O)N[C@@H](Cc1c[nH]cn1)C(=O)N[C@H](C(=O)N[C@@H](CCC(N)=O)C(=O)N[C@@H](Cc1ccccc1)C(N)=O)[C@@H](C)O` [TGFf-12] (H-G[Pra]GGNDCPDSHTQF-NH2), “No binding”.
In the case of `C#CC[C@H](NC(=O)CN)C(=O)NCC(=O)NCC(=O)N[C@@H](Cc1c[nH]c2ccccc12)C(=O)N[C@@H](CO)C(=O)N[C@@H](Cc1c[nH]cn1)C(=O)N[C@@H](Cc1ccccc1)C(=O)N[C@@H](CC(N)=O)C(=O)N[C@@H](CC(=O)O)C(=O)N[C@@H](CS)C(=O)N1CCC[C@H]1C(=O)N[C@@H](CC(=O)O)C(N)=O` [TGFf-13] (H-G[Pra]GGWSHFNDCPD-NH2), the KD entry is reported as “No binding”.
Take `C#CC[C@H](NC(=O)CN)C(=O)NCC(=O)NCC(=O)N[C@@H](C)C(=O)N[C@@H](CCCNC(=N)N)C(=O)N[C@@H](CS)C(=O)N[C@@H](Cc1c[nH]cn1)C(=O)N[C@@H](CCC(=O)O)C(=O)N[C@@H](Cc1c[nH]cn1)C(=O)N[C@@H](C)C(=O)N[C@@H](CC(=O)O)C(=O)N[C@@H](CC(C)C)C(=O)N[C@@H](CC(C)C)C(=O)N[C@@H](C)C(N)=O` [TGFf-14] (H-G[Pra]GGARCHEHADLLA-NH2): the KD result is recorded as “No binding”.
Same read-out and setting: for “H2N-G-Par-GG-CPDSHTQFC(Acm)FHGTC-CONH2 (H-G[Pra]GGCPDSHTQFC(Acm)FHGTC-NH2; disulfide 5-18; SMILES C#CC[C@H](NC(=O)CN)C(=O)NCC(=O)NCC(=O)N[C@H]1CSSC[C@@H](C(N)=O)NC(=O)[C@H]([C@@H](C)O)NC(=O)CNC(=O)[C@H](Cc2c[nH]cn2)NC(=O)[C@H](Cc2ccccc2)NC(=O)[C@H](CSCNC(C)=O)NC(=O)[C@H](Cc2ccccc2)NC(=O)[C@H](CCC(N)=O)NC(=O)[C@H]([C@@H](C)O)NC(=O)[C@H](Cc2c[nH]cn2)NC(=O)[C@H](CO)NC(=O)[C@H](CC(=O)O)NC(=O)[C@@H]2CCCN2C1=O) [TGFf-3]” the value was “Not soluble”.

Staying with this assay, now noted: Table 13, point mutations.
Take “H2N-DPCTWEVFGRECLQ-GG-Par-G-CONH2 [Peptide P2-40]”: the “KD/P2 KD” value was “NS at 100 μM”.
Turning to “H2N-DPCTWEVWARECLQ-GG-Par-G-CONH2 [Peptide P2-41]”, the “KD/P2 KD” value is given as “NS at 100 μM”.

Staying with this assay, now noted: Table 14; relative affinity compared to KD of parent P2 (FIG. 16).
“H2N-GDP-Dap-TWEVWGREDLQ-GG-Par-G-CONH2 (H-GDP[Dap]TWEVWGREDLQGG[Pra]G-NH2; lactam 4-13) [Peptide P2-59]”: the Result result was “No binding”.
Same read-out and setting: for “H2N-GDP-Dap-TWEVWGREELQ-GG-Par-G-CONH2 (H-GDP[Dap]TWEVWGREELQGG[Pra]G-NH2; lactam 4-13) [Peptide P2-63]” the value was “No binding”.
Still for that read-out and setting: the result for “H2N-GDP-Orn-TWEVWGREDLQ-GG-Par-G-CONH2 (H-GDP[Orn]TWEVWGREDLQGG[Pra]G-NH2; lactam 4-13; SMILES C#CC[C@H](NC(=O)CNC(=O)CNC(=O)[C@H](CCC(N)=O)NC(=O)[C@H](CC(C)C)NC(=O)[C@@H]1CC(=O)NCCC[C@H](NC(=O)[C@@H]2CCCN2C(=O)[C@H](CC(=O)O)NC(=O)CN)C(=O)N[C@@H]([C@@H](C)O)C(=O)N[C@@H](Cc2c[nH]c3ccccc23)C(=O)N[C@@H](CCC(=O)O)C(=O)N[C@@H](C(C)C)C(=O)N[C@@H](Cc2c[nH]c3ccccc23)C(=O)NCC(=O)N[C@@H](CCCNC(=N)N)C(=O)N[C@@H](CCC(=O)O)C(=O)N1)C(=O)NCC(N)=O) [Peptide P2-58]” reads “No binding”; that for “H2N-GDP-Orn-TWEVWGREELQ-GG-Par-G-CONH2 (H-GDP[Orn]TWEVWGREELQGG[Pra]G-NH2; lactam 4-13; SMILES C#CC[C@H](NC(=O)CNC(=O)CNC(=O)[C@H](CCC(N)=O)NC(=O)[C@H](CC(C)C)NC(=O)[C@@H]1CCC(=O)NCCC[C@H](NC(=O)[C@@H]2CCCN2C(=O)[C@H](CC(=O)O)NC(=O)CN)C(=O)N[C@@H]([C@@H](C)O)C(=O)N[C@@H](Cc2c[nH]c3ccccc23)C(=O)N[C@@H](CCC(=O)O)C(=O)N[C@@H](C(C)C)C(=O)N[C@@H](Cc2c[nH]c3ccccc23)C(=O)NCC(=O)N[C@@H](CCCNC(=N)N)C(=O)N[C@@H](CCC(=O)O)C(=O)N1)C(=O)NCC(N)=O) [Peptide P2-61]”, “No binding”; that for “H2N-GDPDTWEVWGRE-Dap-LQ-GG-Par-G-CONH2 (H-GDPDTWEVWGRE[Dap]LQGG[Pra]G-NH2; lactam 4-13) [Peptide P2-66]”, “No binding”.
Same read-out and setting: the result for “H2N-GDPDTWEVWGRE-Orn-LQ-GG-Par-G-CONH2 (H-GDPDTWEVWGRE[Orn]LQGG[Pra]G-NH2; lactam 4-13; SMILES C#CC[C@H](NC(=O)CNC(=O)CNC(=O)[C@H](CCC(N)=O)NC(=O)[C@H](CC(C)C)NC(=O)[C@@H]1CCCNC(=O)C[C@H](NC(=O)[C@@H]2CCCN2C(=O)[C@H](CC(=O)O)NC(=O)CN)C(=O)N[C@@H]([C@@H](C)O)C(=O)N[C@@H](Cc2c[nH]c3ccccc23)C(=O)N[C@@H](CCC(=O)O)C(=O)N[C@@H](C(C)C)C(=O)N[C@@H](Cc2c[nH]c3ccccc23)C(=O)NCC(=O)N[C@@H](CCCNC(=N)N)C(=O)N[C@@H](CCC(=O)O)C(=O)N1)C(=O)NCC(N)=O) [Peptide P2-65]” reads “No binding”; that for “H2N-GDPDTWEVWGREKLQ-GG-Par-G-CONH2 (H-GDPDTWEVWGREKLQGG[Pra]G-NH2; lactam 4-13; SMILES C#CC[C@H](NC(=O)CNC(=O)CNC(=O)[C@H](CCC(N)=O)NC(=O)[C@H](CC(C)C)NC(=O)[C@@H]1CCCCNC(=O)C[C@H](NC(=O)[C@@H]2CCCN2C(=O)[C@H](CC(=O)O)NC(=O)CN)C(=O)N[C@@H]([C@@H](C)O)C(=O)N[C@@H](Cc2c[nH]c3ccccc23)C(=O)N[C@@H](CCC(=O)O)C(=O)N[C@@H](C(C)C)C(=O)N[C@@H](Cc2c[nH]c3ccccc23)C(=O)NCC(=O)N[C@@H](CCCNC(=N)N)C(=O)N[C@@H](CCC(=O)O)C(=O)N1)C(=O)NCC(N)=O) [Peptide P2-64]”, “No binding”; that for “H2N-GDPETWEVWGRE-Dap-LQ-GG-Par-G-CONH2 (H-GDPETWEVWGRE[Dap]LQGG[Pra]G-NH2; lactam 4-13) [Peptide P2-69]”, “No binding”.
